# Measurements as given in patent US20260015426A1 (23ANDME, published 2026).
# Where two headings read alike, the source gives them in different places.
# T1: human IL1RAP (hu-IL1RAP) on human cells (human, UniProt Q9NPH3 21-570)
# T1 sequence: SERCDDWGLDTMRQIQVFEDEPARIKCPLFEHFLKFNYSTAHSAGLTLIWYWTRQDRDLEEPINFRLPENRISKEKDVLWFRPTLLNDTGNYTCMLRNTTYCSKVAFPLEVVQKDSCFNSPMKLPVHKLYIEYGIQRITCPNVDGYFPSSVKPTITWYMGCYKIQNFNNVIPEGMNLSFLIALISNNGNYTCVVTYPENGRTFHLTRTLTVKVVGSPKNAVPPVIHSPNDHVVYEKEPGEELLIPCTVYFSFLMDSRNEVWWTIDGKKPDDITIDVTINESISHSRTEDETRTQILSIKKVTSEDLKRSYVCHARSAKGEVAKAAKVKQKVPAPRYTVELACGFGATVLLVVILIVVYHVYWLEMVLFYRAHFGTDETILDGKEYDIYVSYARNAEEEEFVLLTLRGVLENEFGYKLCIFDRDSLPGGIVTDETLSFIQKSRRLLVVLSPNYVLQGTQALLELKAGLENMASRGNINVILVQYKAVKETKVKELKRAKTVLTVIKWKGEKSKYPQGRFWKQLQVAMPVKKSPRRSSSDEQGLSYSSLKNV
# T2: hu-M-IL1RAP construct, positions S21-T367 (extracellular domain of the membrane form of human IL1RAP) (human, UniProt Q9NPH3 21-367)
# T2 construct: Biotinylated when captured on the Biacore chip
# T2 sequence: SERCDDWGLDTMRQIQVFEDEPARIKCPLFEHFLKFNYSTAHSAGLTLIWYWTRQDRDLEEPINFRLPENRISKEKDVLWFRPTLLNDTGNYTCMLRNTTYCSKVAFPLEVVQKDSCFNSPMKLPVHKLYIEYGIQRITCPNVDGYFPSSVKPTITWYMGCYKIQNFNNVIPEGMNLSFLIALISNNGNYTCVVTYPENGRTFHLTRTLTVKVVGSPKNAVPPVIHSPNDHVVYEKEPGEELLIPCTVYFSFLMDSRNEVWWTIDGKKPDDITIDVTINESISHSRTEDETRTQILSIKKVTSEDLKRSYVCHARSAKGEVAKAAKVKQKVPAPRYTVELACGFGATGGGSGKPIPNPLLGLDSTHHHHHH
# T3: cyno-M-IL1RAP construct, positions S21-T367 (cynomolgus monkey, UniProt P59822 21-367 (rhesus entry))
# T3 construct: Biotinylated when captured on the Biacore chip; also called cy-M-IL1RAP
# T3 sequence: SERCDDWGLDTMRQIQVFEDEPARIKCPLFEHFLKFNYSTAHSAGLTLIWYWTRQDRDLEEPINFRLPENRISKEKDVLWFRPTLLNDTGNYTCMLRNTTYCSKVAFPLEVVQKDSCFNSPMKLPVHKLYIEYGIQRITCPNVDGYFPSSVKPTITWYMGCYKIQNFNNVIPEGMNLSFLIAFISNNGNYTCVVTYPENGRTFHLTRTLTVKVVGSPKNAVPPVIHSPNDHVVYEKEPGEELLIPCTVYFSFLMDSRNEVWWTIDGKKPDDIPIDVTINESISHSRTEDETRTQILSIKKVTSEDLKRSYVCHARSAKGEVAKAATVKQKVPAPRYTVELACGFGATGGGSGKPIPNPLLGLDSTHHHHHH
# T4: hu-S-IL1RAP construct, positions S21-Q356 (soluble human IL1RAP) (human, UniProt Q9NPH3 21-350)
# T4 sequence: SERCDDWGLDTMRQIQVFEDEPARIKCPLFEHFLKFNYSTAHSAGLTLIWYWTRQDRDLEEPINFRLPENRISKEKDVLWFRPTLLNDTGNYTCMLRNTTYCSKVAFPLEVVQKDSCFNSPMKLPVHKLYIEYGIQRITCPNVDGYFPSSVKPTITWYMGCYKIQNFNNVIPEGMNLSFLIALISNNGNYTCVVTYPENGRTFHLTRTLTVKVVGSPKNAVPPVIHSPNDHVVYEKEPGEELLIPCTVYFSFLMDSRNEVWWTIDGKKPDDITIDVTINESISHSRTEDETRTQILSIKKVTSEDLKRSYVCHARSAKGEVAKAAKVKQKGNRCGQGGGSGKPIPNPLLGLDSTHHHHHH
# T5: mu-M-IL1RAP construct, positions S21-T367 (mouse, UniProt Q61730 21-367)
# T5 construct: also called mo-M-IL1RAP; mouse-M-IL1RAP
# T5 sequence: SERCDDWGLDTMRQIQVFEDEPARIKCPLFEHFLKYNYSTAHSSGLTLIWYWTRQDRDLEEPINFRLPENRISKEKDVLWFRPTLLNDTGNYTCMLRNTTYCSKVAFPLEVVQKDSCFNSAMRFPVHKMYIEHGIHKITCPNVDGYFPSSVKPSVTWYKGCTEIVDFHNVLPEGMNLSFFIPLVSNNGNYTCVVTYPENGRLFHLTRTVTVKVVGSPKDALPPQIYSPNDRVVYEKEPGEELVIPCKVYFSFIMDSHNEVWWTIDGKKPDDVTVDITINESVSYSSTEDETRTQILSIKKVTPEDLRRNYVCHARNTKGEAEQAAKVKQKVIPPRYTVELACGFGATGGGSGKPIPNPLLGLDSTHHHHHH
# T6: hu-M-IL1RAP-D1D2 construct, positions S21-P237 (human)
# T6 chain: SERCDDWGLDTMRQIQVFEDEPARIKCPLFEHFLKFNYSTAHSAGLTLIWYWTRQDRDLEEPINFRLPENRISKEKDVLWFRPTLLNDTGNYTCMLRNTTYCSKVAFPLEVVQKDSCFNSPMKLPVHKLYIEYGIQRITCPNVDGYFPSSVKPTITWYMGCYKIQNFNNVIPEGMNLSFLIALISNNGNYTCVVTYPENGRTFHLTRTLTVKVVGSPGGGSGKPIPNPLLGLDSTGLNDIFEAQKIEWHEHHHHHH
# What was measured:
# [1] = biological target: T1, human IL1RAP (hu-IL1RAP) on human cells; experiment: cell-based or functional assay
# [2] = biological target: T2, hu-M-IL1RAP construct, positions …; experiment: SPR, IgG analyte (apparent), 37 C, pH 7.4
# [3] = biological target: T3, cyno-M-IL1RAP construct, positions …; experiment: SPR, IgG analyte (apparent), 37 C, pH 7.4
# [4] = biological target: T1, human IL1RAP (hu-IL1RAP) on human cells; experiment: cell-based or functional assay; remark: listed apart in the source
# [5] = biological target: T2, hu-M-IL1RAP construct, positions …; experiment: SPR, IgG analyte (apparent), 37 C, pH 6
# [6] = biological target: T3, cyno-M-IL1RAP construct, positions …; experiment: SPR, IgG analyte (apparent), 37 C, pH 6
# [7] = biological target: T2, hu-M-IL1RAP construct, positions …; experiment: SPR, 37 C
# [8] = biological target: T3, cyno-M-IL1RAP construct, positions …; experiment: SPR, 37 C
# [9] = biological target: T7, biotinylated human FcRn (Acro biosystems, catalogue number FCN-H52W7) (human, UniProt P55899 24-297; P61769 21-119, biotinylated); experiment: SPR steady state, FcRn captured, 25 C, pH 6.0; pH 6.0
# T7 construct: Bought reagent; also called hu-FcRn
# T7 sequence (P55899 24-297 limits assumed, chain 1 of 2): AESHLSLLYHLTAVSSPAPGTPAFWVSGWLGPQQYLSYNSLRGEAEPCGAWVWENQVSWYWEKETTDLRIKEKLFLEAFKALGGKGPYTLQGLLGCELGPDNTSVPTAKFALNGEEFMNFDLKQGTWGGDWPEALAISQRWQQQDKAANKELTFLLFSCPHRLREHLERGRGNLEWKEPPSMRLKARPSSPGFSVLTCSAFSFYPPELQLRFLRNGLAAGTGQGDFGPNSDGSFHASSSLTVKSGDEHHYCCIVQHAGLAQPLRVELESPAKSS
# T7 sequence (P61769 21-119 limits assumed, chain 2 of 2): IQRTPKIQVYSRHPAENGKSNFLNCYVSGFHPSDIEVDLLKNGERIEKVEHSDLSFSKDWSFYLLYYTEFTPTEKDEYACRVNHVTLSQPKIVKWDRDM
# [10] = biological target: T8, biotinylated cyno FcRn (Acro biosystems, catalogue number FCM-C5284) (cynomolgus monkey, UniProt Q8SPV9 24-297; Q8SPW0 21-119, limits assumed, biotinylated); experiment: as above
# T8 construct: Bought reagent
# [11] = biological target: T2, hu-M-IL1RAP construct, positions …; experiment: SPR, IgG analyte (apparent), pH 7.4, 37 C
# [12] = biological target: T3, cyno-M-IL1RAP construct, positions …; experiment: SPR, IgG analyte (apparent), pH 7.4, 37 C
# [13] = biological target: T4, hu-S-IL1RAP construct, positions …; experiment: ELISA, purified mAb
# [14] = biological target: T5, mu-M-IL1RAP construct, positions …; experiment: ELISA, purified mAb
# [15] = biological target: T2, hu-M-IL1RAP construct, positions …; experiment: ELISA, purified mAb
# [16] = biological target: T3, cyno-M-IL1RAP construct, positions …; experiment: ELISA, purified mAb
# [17] = biological target: T1, human IL1RAP (hu-IL1RAP) on human cells; experiment: cell-based or functional assay; remark: listed apart in the source
# [18] = biological target: T6, hu-M-IL1RAP-D1D2 construct, positions …; experiment: ELISA, mAb at 10 nM
# [19] = biological target: T2, hu-M-IL1RAP construct, positions …; experiment: ELISA, mAb at 10 nM
# [20] = biological target: T2, hu-M-IL1RAP construct, positions …; experiment: ELISA, hybridoma supernatant
# [21] = biological target: T1, human IL1RAP (hu-IL1RAP) on human cells; experiment: cell-based or functional assay; remark: listed apart in the source
binder,measurement,setting,value
"h11C5 variant K17/H2 IgG (YKD) (antibody, Human IgG1 N297G; also called 11C5-YKD) heavy: not shown light: DIQMTQSPSSLSASVGDRVTITCRASENIYSNLAWYQQKPGKSPKLLVYGYKNLADGVPSRFSGSGSGTDYTLTISSLQPEDFATYYCQHFKTTPRTFGGGTKVEIKRTVAAPSVFIFPPSDEQLKSGTASVVCLLNNFYPREAKVQWKVDNALQSGNSQESVTEQDSKDSTYSLSSTLTLSKADYEKHKVYACEVTHQGLSSPVTKSFNRGEC","HEK-Blue, IL-1β, IC50",[1],0.51 nM
same,"HEK-Blue, IL-33, % inhibition at 100 nM",[1],95%
same,"HEK-Blue, IL-33, IC50",[1],3.15 nM
same,"HEK-Blue, IL-36β, IC50",[1],0.9 nM
same,"HEKn, IL-36β stimulated IL-8, IC50",[1],1.39 nM
same,"NK cells, IL-33+IL-12 stimulated IFN-γ, IC50",[1],2.93 nM
same,"PHLF, IL-1α stimulated IL-8, IC50",[1],9.1 nM
same,"PHLF, IL-36β stimulated IL-8, IC50",[1],0.39 nM
same,"monocytes, IL-1β stimulated IL-6, IC50",[1],63 pM
same,Kd,[2],0.0185 nM
same,koff,[2],3.51e-05 s⁻¹
same,kon,[2],1.9e+06 M⁻¹ s⁻¹
same,Kd,[3],0.0339 nM
same,koff,[3],6.8e-05 s⁻¹
same,kon,[3],2e+06 M⁻¹ s⁻¹
same,"HEK-Blue, IL-1β, % inhibition at 100 nM (IgG)",[4],100%
same,"HEK-Blue, IL-1β, IC50 (IgG)",[4],513 pM
same,"HEK-Blue, IL-33, % inhibition at 100 nM (IgG)",[4],100%
same,"HEK-Blue, IL-33, IC50 (IgG)",[4],2.08 nM
same,"HEK-Blue, IL-36α, % inhibition at 100 nM (IgG)",[4],100%
same,"HEK-Blue, IL-36α, IC50 (IgG)",[4],622 pM
same,Kd,[5],0.188 nM
same,koff,[5],0.00056 s⁻¹
same,kon,[5],2.98e+06 M⁻¹ s⁻¹
same,Kd,[6],0.164 nM
same,koff,[6],0.000324 s⁻¹
same,kon,[6],1.98e+06 M⁻¹ s⁻¹
same,KD (6)/KD (7.4),[7],10 ratio
same,KD (7.4) ratio to YIS,[7],0.86 ratio
same,koff (6) ratio to YIS,[7],3.8 ratio
same,KD (6)/KD (7.4),[8],4.8 ratio
same,KD (7.4) ratio to YIS,[8],2.4 ratio
same,koff (6) ratio to YIS,[8],4.7 ratio
same,Kd,[9],558 nM
same,Kd,[10],45.6 nM
same,Kd,[11],0.0304 nM
same,koff,[11],6.15e-05 s⁻¹
same,kon,[11],2.03e+06 M⁻¹ s⁻¹
same,Kd,[12],0.0223 nM
same,koff,[12],5.39e-05 s⁻¹
same,kon,[12],2.41e+06 M⁻¹ s⁻¹
"8H1 (purified mAb from hybridoma 8H1) (antibody, V domains shown, Mouse hybridoma mAb) VH: QVQLQQSGPELVKSGASVRISCKASGYAFSGSWMNWVKQRPGKGLEWIGRIYPGDGNTNYNGKFKDKATLTADKSSSTAFMQLSSLTSEDSAVYFCARDYYLFYFDYWGQGTTLTVSS VL: NIVMTQTPKFLPVAAEDRVIITCKASQDVSNEVAWYQQKPGQSPKLLMYYASNRYTGVPDRFTGSGSGTDFTFTISSVQVEDLAVYFCQQHYSSPLTFGAGTKLELK",EC50,[13],0.186 nM
same,binding result,[14],no binding (tested: 20 nM (highest tested))
same,EC50,[15],0.262 nM
same,EC50,[16],0.257 nM
same,"HEK-Blue SEAP, IL-1β, % inhibition (supernatant)",[17],45%
same,"HEK-Blue SEAP, IL-33, % inhibition (supernatant)",[17],26%
same,A450,[18],0.602 A450
same,A450,[19],1.09 A450
same,A450,[20],0.987 A450
same,"HEK-Blue, IL-1β, % inhibition at 100 nM",[21],64%
same,"HEK-Blue, IL-33, % inhibition at 100 nM",[21],27%
"9D5 (purified mAb from hybridoma 9D5) (antibody, V domains shown, Mouse hybridoma mAb) VH: QVQLQQSGAELARPGASVKFSCKASGYTFTSYWMQWVKQRPGQGLEWIGTIYPGDGNTRYTQKFKGKATLTADKSSSTAYMQLSGLASEDSAVYYCARGYFGNLVFDVWGAGTTVTVSS VL: DIKMTQSPSSMYASLGERVTITCKASQDINTYLSWFLQKPGKSPKTLIYRADRLVDGVPSRFSGGGSGQDYSLTISSLEYEDLGIYYCLQYDEFPYTFGSGTKLEIK",EC50,[13],0.036 nM
same,binding result,[14],no binding (tested: 20 nM (highest tested))
same,EC50,[15],0.039 nM
same,EC50,[16],0.043 nM
same,"HEK-Blue SEAP, IL-1β, % inhibition (supernatant)",[17],40%
same,"HEK-Blue SEAP, IL-33, % inhibition (supernatant)",[17],18%
same,A450,[18],0.957 A450
same,A450,[19],1.14 A450
same,A450,[20],1.05 A450
same,"HEK-Blue, IL-1β, % inhibition at 100 nM",[21],86%
same,"HEK-Blue, IL-33, % inhibition at 100 nM",[21],46%
